System: mussel adhesive protein fp-151
Sequence (chain, as listed by the source): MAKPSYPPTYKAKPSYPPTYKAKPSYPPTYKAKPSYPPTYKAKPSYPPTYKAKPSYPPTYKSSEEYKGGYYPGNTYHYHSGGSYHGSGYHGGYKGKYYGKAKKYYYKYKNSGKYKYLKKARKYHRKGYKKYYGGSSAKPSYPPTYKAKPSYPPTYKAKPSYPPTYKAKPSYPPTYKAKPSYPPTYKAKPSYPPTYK

## alkaline phosphatase
  activity of alkaline phosphatase remaining on the nanofiber (conversion of pNPP, absorbance at 405 nm): alkaline phosphatase is coated only on PCL/fp-151 nanofiber to exhibit the activity
